{
  "source": "patent US20040132121A1",
  "about": "“Method of identifying antibacterial compounds” (priority 2000, published 2004)",
  "data": [
    {"target": "Escherichia coli β subunit of DNA Polymerase III (β protein) (Escherichia coli) (UniProt P0A988)", "units": {"IC50": "µM"}, "values": [
      {"substance": "pep18 Ac-DLF-NH2 (peptide)", "IC50": 135}
    ]},
    {"target": "E. coli β fused to the B42 transcriptional activation domain (plasmid pB42ADβ) (Escherichia coli) (UniProt P0A988)", "units": {"β-gal activity Miller units (yeast two-hybrid; interact with β: +)": "Miller units", "β-gal activity Miller units (yeast two-hybrid; interact with β: -)": "Miller units"}, "values": [
      {"substance": "LexA-DinB (307-317) fusion (plasmid pLexADinB (307-317)) (from UniProt P0A7C2 1-202)", "β-gal activity Miller units (yeast two-hybrid; interact with β: +)": 75.1},
      {"substance": "LexA-DnaE (542-735) fusion (from UniProt P0A7C2 1-202; P10443 542-735)", "β-gal activity Miller units (yeast two-hybrid; interact with β: -)": 1.1},
      {"substance": "LexA-DnaE (542-991) fusion (plasmid pLexADnaE (542-991)) (from UniProt P0A7C2 1-202; P10443 542-991)", "β-gal activity Miller units (yeast two-hybrid; interact with β: +)": 60.1},
      {"substance": "LexA-DnaE (736-991) fusion (from UniProt P0A7C2 1-202; P10443 736-991)", "β-gal activity Miller units (yeast two-hybrid; interact with β: +)": 135},
      {"substance": "LexA-DnaE (896-919) fusion (plasmid pLexADnaE (896-919)) (from UniProt P0A7C2 1-202; P10443 896-919)", "β-gal activity Miller units (yeast two-hybrid; interact with β: -)": 0.1},
      {"substance": "LexA-DnaE (908-931) fusion (plasmid pLexADnaE (908-931)) (from UniProt P0A7C2 1-202; P10443 908-931)", "β-gal activity Miller units (yeast two-hybrid; interact with β: +)": 32.3},
      {"substance": "LexA-MutS (802-818) fusion (plasmid pLexAMutS(802-818)) (from UniProt P0A7C2 1-202)", "β-gal activity Miller units (yeast two-hybrid; interact with β: +)": 43.8},
      {"substance": "LexA-PolB (779-783) fusion (plasmid pLexAPolB(779-783)) (from UniProt P0A7C2 1-202)", "β-gal activity Miller units (yeast two-hybrid; interact with β: +)": 69.6},
      {"substance": "LexA-UmuC (351-365) fusion (plasmid pLexAUmuC(351-365)) (from UniProt P0A7C2 1-202)", "β-gal activity Miller units (yeast two-hybrid; interact with β: +)": 94.8},
      {"substance": "pLexA", "β-gal activity Miller units (yeast two-hybrid; interact with β: -)": 1.5}
    ]}
  ]
}
